Measurements reported in publication PMC4371794.

Molecular target: R499D-quad-PDE4D5
Test: yeast two-hybrid, quantitative β-galactosidase assay
Conditions: parent: est. 18, read off a plot

PDE4D5 (wild-type, full-length; "long") (from UniProt Q08499-6) binder:N174A; binder:N175A; target:R173A; target:N174A; target:N175A; target:E228A; target:T229A; target:L230A; target:L306A; target:M307A; target:H308A; target:K323A; target:T324A; target:E325A; target:R499D
response (bar labelled DD1 sequence RAA): 7.1 arbitrary

PDE4D5 (wild-type, full-length; "long") (from UniProt Q08499-6) binder:N174A; target:R173A; target:N174A; target:N175A; target:E228A; target:T229A; target:L230A; target:L306A; target:M307A; target:H308A; target:K323A; target:T324A; target:E325A; target:R499D
response (bar labelled DD1 sequence RAN): 1.9 arbitrary

PDE4D5 (wild-type, full-length; "long") (from UniProt Q08499-6) binder:N175A; target:R173A; target:N174A; target:N175A; target:E228A; target:T229A; target:L230A; target:L306A; target:M307A; target:H308A; target:K323A; target:T324A; target:E325A; target:R499D
response (bar labelled DD1 sequence RNA): 5.1 arbitrary

PDE4D5 (wild-type, full-length; "long") (from UniProt Q08499-6) binder:R173A; binder:N174A; binder:N175A; target:R173A; target:N174A; target:N175A; target:E228A; target:T229A; target:L230A; target:L306A; target:M307A; target:H308A; target:K323A; target:T324A; target:E325A; target:R499D
response (bar labelled DD1 sequence AAA): 1.1 arbitrary

PDE4D5 (wild-type, full-length; "long") (from UniProt Q08499-6) binder:R173A; binder:N175A; target:R173A; target:N174A; target:N175A; target:E228A; target:T229A; target:L230A; target:L306A; target:M307A; target:H308A; target:K323A; target:T324A; target:E325A; target:R499D
response (bar labelled DD1 sequence ANA): 0.9 arbitrary

PDE4D5 (wild-type, full-length; "long") (from UniProt Q08499-6) binder:R173A; target:R173A; target:N174A; target:N175A; target:E228A; target:T229A; target:L230A; target:L306A; target:M307A; target:H308A; target:K323A; target:T324A; target:E325A; target:R499D
response (bar labelled DD1 sequence ANN): 5.4 arbitrary
